According to the Human Domainome abundance scans (Beltran et al. 2025):

B1: Homeobox protein SIX3, residues 212 to 262; numbered along this chain, O95343 (parent)
chain: CFKERTRSLLREWYLQDPYPNPSKKRELAQATGLTPTQVGNWFKNRRQRDR

Variants of: B1
Assay: abundance fitness (aPCA) (normalised: wild type 0, dead -1); higher = more abundant; growth selection in yeast, the domain comes from the species named
Details: Homo sapiens

Abundance fitness: each site, then its substitutions
R47: W -0.641 | C -0.804 | G -0.898 | T -0.84 | A -0.465 | Y -0.945 | H -0.617 | V -0.586 | N -0.552 | S -0.723 | M -0.975 | Q -0.473 | K -0.591 | I -0.613 | D -0.654 | F -0.548 | P -0.532
P36: F 0.184 | K -0.048 | N -0.815 | Q -0.235 | R -0.307 | S -0.274 | G -0.596 | C -0.241 | I -0.096 | D -0.638 | H -0.305 | L -0.087 | M 0.03 | T -0.066 | A -0.226 | W -0.536 | E 0.066
T37: N -0.27 | G -0.126 | E 0.164 | A -0.11 | V -0.091 | D 0.326 | Q 0.211 | M -0.055 | L -0.255 | H -0.099 | P -0.416 | C -0.051 | S -0.186 | I -0.184 | R 0.014 | F -0.678 | W -0.441
G33: N 0.029 | Q -0.57 | T -0.766 | L -0.812 | D -0.412 | R -0.613 | M -0.75 | F -0.774 | H -0.542 | K -0.494 | S -0.555 | I -0.902 | E -0.915 | A -0.674 | C -0.643 | V -0.779 | P -0.746 | Y -0.978
T32: A -0.399 | R -0.87 | S -0.43 | P -0.802 | H 0.036 | G -0.903 | F -0.922 | Y -1 | Q -1.23 | M -0.59 | D -0.96 | I -0.591 | K -1.02 | C -0.026 | V -0.257 | L -0.409 | N -0.637 | E -0.908 | W -0.821
K44: H -0.354 | S -0.192 | G -0.72 | I -0.629 | N 0.017 | D -0.356 | Y -0.496 | T -0.376 | R -0.115 | A -0.286 | V -0.48 | C -0.807 | M -0.505 | E -0.086 | L -0.407 | W -0.623 | Q 0.007 | F -0.452
A29: P -0.911 | S -0.125 | R -1.11 | Q -0.897 | T -0.76 | W -0.704
N41: G -0.55 | V -0.325 | H -0.168 | Q -0.402 | L -0.516 | C -0.459 | S -0.204 | K 0.252 | D -0.497 | I -0.627 | A -0.496 | P -0.614 | M -0.286 | R 0.142
V39: H -0.998 | S -0.916 | Q -0.78 | Y -0.897 | G -0.731 | D -0.893 | E -0.96 | L -0.84 | R -0.873 | P -0.972 | N -1.01 | A -0.829 | T -0.573 | C -0.969 | K -0.945 | F -0.848
G40: K 0.097 | M -0.621 | D -0.227 | V -0.6 | W -0.81 | F -0.858 | L -0.731 | I -0.247 | A -0.146 | S 0.006 | T -0.183 | E -0.099 | C -0.13 | H -0.122 | R 0.008 | Y -0.871 | N 0.131
A31: H -0.062 | E -0.076 | Q -0.023 | M -0.087 | I -0.148 | N -0.506 | S -0.186 | K -0.094 | W -0.326 | Y -0.349 | L 0.088 | G -0.651 | V -0.169 | D -0.475 | T -0.147 | F -0.749 | C -0.296 | P -0.892
W42: Y -0.398 | P -1 | D -0.722 | F -0.764 | V -0.986 | E -0.893 | A -0.793 | H -0.702 | K -0.871 | R -0.933 | I -0.897 | G -0.85 | C -0.901 | Q -0.854 | S -1.06 | T -0.461
Q48: S -0.124 | T -0.242 | K 0.177 | D -0.37 | P -0.799 | R 0.397 | M -0.431 | H -0.042 | F -0.46 | L -0.225 | W -0.117 | C -0.147 | A 0.028 | N -0.166 | V -0.545 | E -0.267
R46: K 0.144 | M -0.182 | A -0.306 | Y -0.504 | F -0.63 | L -0.531 | I -0.748 | C -0.554 | D -0.67 | P -0.611 | G -0.937 | T -0.117 | W -0.817 | Q -0.045 | N -0.456 | E -0.167 | S -0.326 | H -0.269 | V -0.635
L34: K -0.56 | Q -0.634 | D -0.798 | A -0.72 | S -0.623 | I -0.445 | V -0.881 | H -0.502 | F -0.823 | Y -0.778 | N -0.918 | T -0.73 | P -0.75 | C -0.834 | M -0.186 | R -0.847 | W -0.606 | G -0.72
T35: C -0.645 | R -0.704 | S -0.044 | K -0.726 | H -0.763 | W -0.848 | A -0.861 | Y -0.826 | L -0.778 | N -0.259 | F -0.77 | D -0.697 | M -0.715 | P -0.894 | E -0.809 | G -0.827 | V -0.842 | Q -0.252
N45: P -0.967 | M -0.355 | K -0.368 | E -0.192 | Q -0.263 | R -0.063 | T -0.255 | C -0.396 | H -0.209 | Y -0.725 | S -0.283 | G -0.58 | L -0.28 | V -0.493 | W -0.655 | I -0.429 | A -0.452
F43: H -0.82 | D -0.816 | V -1 | I -0.679 | L -0.97 | C -0.755 | M -0.782 | E -0.883 | T -0.951 | Q -0.861 | A -0.96 | Y -0.689 | P -0.941 | N -0.621 | K -0.92 | G -0.956 | S -0.837 | R -0.774 | W -0.915
Q30: G -0.166 | Y -0.314 | H -0.149 | S -0.044 | P -0.93 | N 0.114 | A -0.19 | F -0.284 | W -0.097 | V -0.163 | I 0.228 | D 0.037 | R -0.329 | E -0.068 | L -0.139 | C -0.243
Q38: A -0.338 | L -0.64 | C -0.393 | S -0.676 | G -0.761 | K -0.886 | N -0.728 | T -0.43 | M -0.619 | D -0.937 | F -0.663 | E -0.606 | W -0.774 | V -0.418 | H -0.81 | R -0.802 | P -1.13 | I -0.733
